Here are results for one substance from publication PMC2172285.

This test deals with cortactin, endogenous in hE-CHO cells (hamster (endogenous in CHO)). The test is described as follows: co-IP.

“human E-cadherin stably expressed in CHO cells (hE-CHO cells) (from UniProt P12830 155-882) (receptor)”: the percent of total cellular E-cadherin found in the cortactin immunoprecipitates lay in the range of 1 to 2%.
